Positions count from the first letter of the chain named. Values joined by “and” are separate entries in the source; they are usually repeats but may differ in a detail not shown here. Equal values may be shown once.
Legend:
Assay in all cases: SPR
[1] = biological target: T1, BB_2cx5_001 (backbone grafting 2F5 epitope scaffold on parent PDB 2cx5) (designed scaffold on Thermus …)
T1 chain: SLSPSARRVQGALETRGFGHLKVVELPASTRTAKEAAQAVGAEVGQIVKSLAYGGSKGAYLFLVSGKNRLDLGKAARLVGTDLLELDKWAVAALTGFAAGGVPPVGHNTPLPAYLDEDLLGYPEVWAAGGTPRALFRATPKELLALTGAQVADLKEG

[2] = biological target: T2, BB_1wnu_001 (backbone grafting 2F5 epitope scaffold on parent PDB 1wnu) (designed scaffold on Pyrococcus …)
T2 chain: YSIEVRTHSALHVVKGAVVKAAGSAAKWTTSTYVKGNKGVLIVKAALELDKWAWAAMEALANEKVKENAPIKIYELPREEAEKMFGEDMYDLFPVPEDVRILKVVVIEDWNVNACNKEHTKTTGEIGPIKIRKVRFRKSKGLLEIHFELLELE

[3] = biological target: T3, SC_1wnu (side-chain grafting 2F5 epitope scaffold on parent PDB 1wnu) (designed scaffold on Pyrococcus …)
T3 chain: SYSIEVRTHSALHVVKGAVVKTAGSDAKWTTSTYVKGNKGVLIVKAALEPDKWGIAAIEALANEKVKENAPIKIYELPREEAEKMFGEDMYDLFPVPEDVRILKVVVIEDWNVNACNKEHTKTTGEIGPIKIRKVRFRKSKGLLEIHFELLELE

[4] = biological target: T4, SC_2cx5 (side-chain grafting 2F5 epitope scaffold on parent PDB 2cx5) (designed scaffold on Thermus …)
T4 chain: T1 chain with A52V, S56E, A76T, T81G, D82P, L86A, A98D

B1: 2F5 monoclonal antibody (2F5 IgG) (antibody, V domains shown)
VH: RITLKESGPPLVKPTQTLTLTCSFSGFSLSDFGVGVGWIRQPPGKALEWLAIIYSDDDKRYSPSLNTRLTITKDTSKNQVVLVMTRVSPVDTATYFCAHRRGPTTLFGVPIARGPVNAMDVWGQGITVTISS
VL: ALQLTQSPSSLSASVGDRITITCRASQGVTSALAWYRQKPGSPPQLLIYDASSLESGVPSRFSGSGSGTEFTLTISTLRPEDFATYYCQQLHFYPHTFGGGTRVDVR
B1 was tested, and the Kd [1] was 1.4 nM, the Kd [2] was 8.3 nM and 8.7 nM and the Kd [3] was 0.091 µM. For the same binder, the “Kd kinetic, step 1 (conformational change model)” value [3] was 0.000109 mM, the “Kd kinetic, step 2 (conformational change model)” value [3] was 3800 mM and the Kd [4] was 0.0402 µM and 0.0383 µM.
